Measurements: patent US20230031670, “METHOD AND KIT FOR DETECTION OF POLYNUCLEOTIDE” (Counci of Scientific & Industrial Research, published 2023)
Residue numbers refer to the chain shown, from its start.

Experiments:
Conditions in all cases: tags: GFP; Ni-NTA purified
dFnCas9-GFP [1] = target: T1, dFnCas9-GFP (Francisella novicida, UniProt A0Q5Y3 SEQ:272-1899); experiment: MST; low Kd, value in figure only; 30 bp dsDNA, 10 mM MgCl2
T1 chain: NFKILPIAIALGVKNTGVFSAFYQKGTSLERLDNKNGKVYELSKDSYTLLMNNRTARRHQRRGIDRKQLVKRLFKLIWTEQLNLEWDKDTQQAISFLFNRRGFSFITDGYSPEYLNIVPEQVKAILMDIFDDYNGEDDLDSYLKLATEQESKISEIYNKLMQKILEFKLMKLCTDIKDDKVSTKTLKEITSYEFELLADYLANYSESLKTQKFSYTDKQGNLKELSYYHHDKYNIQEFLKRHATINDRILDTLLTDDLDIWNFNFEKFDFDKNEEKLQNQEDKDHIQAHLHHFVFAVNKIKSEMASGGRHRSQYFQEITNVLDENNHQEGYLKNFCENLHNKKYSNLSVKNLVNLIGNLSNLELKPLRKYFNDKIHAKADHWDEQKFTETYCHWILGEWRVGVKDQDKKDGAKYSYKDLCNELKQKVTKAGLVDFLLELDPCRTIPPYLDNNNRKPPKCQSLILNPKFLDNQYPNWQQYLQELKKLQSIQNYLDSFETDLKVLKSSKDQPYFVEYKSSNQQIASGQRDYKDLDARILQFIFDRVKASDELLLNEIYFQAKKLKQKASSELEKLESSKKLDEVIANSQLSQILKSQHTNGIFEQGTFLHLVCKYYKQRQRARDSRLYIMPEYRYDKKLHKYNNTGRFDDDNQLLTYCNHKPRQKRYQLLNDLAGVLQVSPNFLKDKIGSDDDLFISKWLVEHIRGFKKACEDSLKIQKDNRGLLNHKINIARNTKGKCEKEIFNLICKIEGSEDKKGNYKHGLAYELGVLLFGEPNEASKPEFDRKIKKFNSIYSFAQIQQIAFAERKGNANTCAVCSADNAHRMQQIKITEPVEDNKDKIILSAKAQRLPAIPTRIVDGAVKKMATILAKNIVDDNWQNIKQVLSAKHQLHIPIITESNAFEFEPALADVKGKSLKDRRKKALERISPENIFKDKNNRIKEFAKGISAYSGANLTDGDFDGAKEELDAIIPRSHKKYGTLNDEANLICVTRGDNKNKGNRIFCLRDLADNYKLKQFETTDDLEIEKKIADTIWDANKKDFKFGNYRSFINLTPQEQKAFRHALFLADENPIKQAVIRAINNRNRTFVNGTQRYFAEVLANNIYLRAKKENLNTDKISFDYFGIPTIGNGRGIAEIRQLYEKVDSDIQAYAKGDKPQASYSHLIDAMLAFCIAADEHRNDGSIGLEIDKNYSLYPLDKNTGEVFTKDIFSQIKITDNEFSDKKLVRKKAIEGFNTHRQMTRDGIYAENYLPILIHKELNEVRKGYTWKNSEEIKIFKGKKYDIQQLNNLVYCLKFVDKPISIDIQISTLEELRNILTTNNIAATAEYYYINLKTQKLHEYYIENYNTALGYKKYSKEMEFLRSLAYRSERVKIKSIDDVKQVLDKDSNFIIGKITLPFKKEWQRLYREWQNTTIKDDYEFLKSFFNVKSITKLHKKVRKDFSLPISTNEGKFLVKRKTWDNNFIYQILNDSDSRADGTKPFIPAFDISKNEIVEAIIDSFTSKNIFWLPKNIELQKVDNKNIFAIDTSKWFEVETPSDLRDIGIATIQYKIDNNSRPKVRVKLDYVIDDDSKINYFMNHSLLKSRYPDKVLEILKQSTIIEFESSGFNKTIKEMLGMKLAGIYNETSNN
Experimental: (§1) MST was performed as reported previously [Dong, D. et al. The crystal structure of Cpfl in complex with CRISPR RNA. Nature (2016); Wienken, C. J., Baaske, P., Rothbauer, U., Braun, D. & Duhr, S. Protein-binding assays in biological liquids using microscale thermophoresis. Nat. Commun. (2010)]. Briefly, dFnCAS9-GFP (SEQ ID NO: 3) protein was complexed with PAGE purified respective IVT sgRNAs (purified by 12% Urea-PAGE). The binding affinities of the CAS9 proteins and sgRNA RNP complexes were calculated using Monolith NT. 115 (NanoTemper Technologies GmbH, Munich, Germany). RNP complex (Protein:sgRNA molar ratio,1:1) was reconstituted at 25° C. for 10 mins in reaction buffer (20 mM HEPES, pH7.5, 150 mM KCl, 1 mM DTT, 10 mM MgCl₂). HPLC purified 30 bp dsDNA (IDT) of different genomic loci with varying concentrations (ranging from 0.09 nM to 30,t/M) were incubated with RNP complex at 37° C. temperature for 30 min in reaction buffer. The sample was loaded into NanoTemper standard treated capillaries and measurements were performed at 25° C. using 20% LED power and 40% MST power. Data analyses were done using NanoTemper analysis software.

dFnCas9-GFP [2] = target: T1, dFnCas9-GFP; experiment: MST; no binding seen
Experimental: as §1

dFnCas9-GFP [3] = target: T1, dFnCas9-GFP; experiment: MST; SEQ ID NO 33 mismatches at 2 and 6; no binding seen
Experimental: as §1

B1: HBB WT sgRNA (FnCas9) ; HBB WT target (ssRNA ; dsDNA)
RNA: GUAACGGCAGACUUCUCCUCAGGGUUUCAGUUGCGCCGAAAGGCGCUCUGUAAUCAUUUAAAAGUAUUUUGAACGGACCUCUGUUUGACACGUCUG
DNA 1: GTAACGGCAGACTTCTCCTC
DNA 2: GAGGAGAAGTCTGCCGTTAC
B1: binds (dFnCas9-GFP [1]).

B2: HBB WT sgRNA (FnCas9) ; HBB mismatched target 1 (ssRNA ; dsDNA)
RNA: B1 RNA
DNA 1: GAAGAAAAGTCTGCCGTTAC
DNA 2: GTAACGGCAGACTTTTCTTC
B2: no binding (dFnCas9-GFP [2]).

B3: HBB sgRNA with mismatches at PAM-proximal 2 and 6 (FnCas9) ; HBB WT target (ssRNA ; dsDNA)
RNA: B1 RNA with C15A, U19A
DNA 1: GTAACGGCAGACTTCTCCTC
DNA 2: GAGGAGAAGTCTGCCGTTAC
B3: no binding (dFnCas9-GFP [3]).
